Results taken from article PMC4287497, “Phosphorylation of Elp1 by Hrr25 Is Required for Elongator-Dependent tRNA Modification in Yeast” (PLoS Genetics, 2015).

Key:
[1] = target: Kti12 (UniProt P34253); assay: GFP-trap IP of Elp1-GFP, anti-HA blot, densitometry; conditions: reference: wild type Elp1-GFP; sites S1209
[2] = target: Kti12 (UniProt P34253); assay: Elp2-myc IP of Elongator, anti-HA blot for Kti12; conditions: reference: wild type Elp1; sites S1209
[3] = target: T1, Elp1-S1209A-GFP (S. cerevisiae, UniProt Q06706 1-1349, S1209A); assay: co-IP; GFP-tagged Elp1 (genomic locus) precipitated with GFP-trap from yeast extracts; Western blot with anti-GFP and anti-HA; densitometry of Kti12-HA normalised to Elp1-GFP, wild type set to 1.0; conditions: partners not purified
T1 construct: Elp1 (Iki3), S. cerevisiae; also called mutant Elp1-GFP fusion; source: S. cerevisiae, expressed from its genomic locus, in cell extract
T1 sequence (looked up): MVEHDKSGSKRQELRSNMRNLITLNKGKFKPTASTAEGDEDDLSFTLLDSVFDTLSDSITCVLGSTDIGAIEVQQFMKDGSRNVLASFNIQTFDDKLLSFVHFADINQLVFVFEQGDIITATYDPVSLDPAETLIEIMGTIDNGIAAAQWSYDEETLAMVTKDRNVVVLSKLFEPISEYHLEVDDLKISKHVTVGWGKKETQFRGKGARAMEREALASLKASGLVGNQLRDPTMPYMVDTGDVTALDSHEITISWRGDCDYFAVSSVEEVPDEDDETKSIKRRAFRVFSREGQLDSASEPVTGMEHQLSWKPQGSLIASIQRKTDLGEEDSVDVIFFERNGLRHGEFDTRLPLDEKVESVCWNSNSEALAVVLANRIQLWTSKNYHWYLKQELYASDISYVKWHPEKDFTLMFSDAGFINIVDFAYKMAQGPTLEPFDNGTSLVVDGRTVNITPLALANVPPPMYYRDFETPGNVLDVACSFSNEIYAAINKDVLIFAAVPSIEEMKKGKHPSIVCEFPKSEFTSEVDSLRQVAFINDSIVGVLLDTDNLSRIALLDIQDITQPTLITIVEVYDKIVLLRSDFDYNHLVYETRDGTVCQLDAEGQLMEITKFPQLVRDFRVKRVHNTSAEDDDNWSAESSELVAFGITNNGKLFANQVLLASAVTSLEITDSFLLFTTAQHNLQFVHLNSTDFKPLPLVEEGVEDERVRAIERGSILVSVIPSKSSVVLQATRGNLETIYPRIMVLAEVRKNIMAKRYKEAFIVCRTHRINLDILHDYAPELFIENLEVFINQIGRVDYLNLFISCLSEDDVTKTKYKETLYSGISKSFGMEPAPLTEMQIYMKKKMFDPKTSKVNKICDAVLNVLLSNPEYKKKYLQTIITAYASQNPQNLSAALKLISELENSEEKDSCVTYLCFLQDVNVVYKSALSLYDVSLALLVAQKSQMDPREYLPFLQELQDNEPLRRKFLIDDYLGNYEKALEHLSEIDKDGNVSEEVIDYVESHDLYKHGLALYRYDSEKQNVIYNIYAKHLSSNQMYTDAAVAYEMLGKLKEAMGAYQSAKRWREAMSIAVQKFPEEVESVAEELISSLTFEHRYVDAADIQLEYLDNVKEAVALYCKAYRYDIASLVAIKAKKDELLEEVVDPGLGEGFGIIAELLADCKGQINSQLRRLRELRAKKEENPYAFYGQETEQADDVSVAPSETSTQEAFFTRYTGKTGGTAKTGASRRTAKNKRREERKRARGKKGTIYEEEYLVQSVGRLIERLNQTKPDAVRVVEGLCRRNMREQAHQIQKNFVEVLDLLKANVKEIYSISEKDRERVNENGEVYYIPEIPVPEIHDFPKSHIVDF

Elp1 (Iki3) (from UniProt Q06706) S1209A Elp1-GFP
fold change [1]: stronger; reference 1.0

Elp1 (Iki3) (from UniProt Q06706) S1209A
binding against the reference [2]: stronger

B1: Kti12-HA6 (natural protein, S. cerevisiae, UniProt P34253 1-313, looked up)
chain: MPLVLFTGYPCSGKTTLAKHLVQLLQSKIDATPSLSKYSITYHSDESLGIKHSDYITSQDERKLRSEIISAVKRDLSKNKIVIVDSLNYIKGFRYQLHCEVKNLSTTFCVIQTLCPPETIFEWNKTSNPNPWEPELLNQLIQRYEEPNSSNRWDSPLFAILTPQDNITDYIDDICKVVFQTSKSAKNSGHNDPLSKGLQKPNSATVLKPASQSNFIQVLDIETSKIIKTIMNHIKSLTSIGGVSNGTRVIVSEGITDINDDGCFFVDLPIGNVVTLAQLQRLKRQFINFNKLRDIDQDRIGPLFADYLNKNLN
notes: Kti12, accessory protein of Elongator, S. cerevisiae; also called HA-tagged Kti12; source: S. cerevisiae KTI12-HA6 strains, in cell extract
Kti12 co-precipitated, fold of wild-type Elp1 [3]: ~2 fold of wild-type Elp1
